Assay results from paper PMC3017781, “Structure-function relationships of wheat flavone O-methyltransferase: Homology modeling and site-directed mutagenesis” (BMC Plant Biology, 2010).

Columns and labels:
[1] = substrate: O=c1cc(-c2cc(O)c(O)c(O)c2)oc2cc(O)cc(O)c12; assay: purified protein
[2] = substrate: COc1cc(/C=C/C(=O)O)cc(O)c1O; assay: radiometric methyltransferase assay with [3H]SAM, Lineweaver-Burk; assay type: biochemical, Triticum aestivum; details: co-substrate SAM (AdoMet) 1 mM, 30°C, 15 min
From the text: radiometric methyltransferase assay with [3H]SAM, Lineweaver-Burk on TaOMT2

[3] = co-substrate SAM (AdoMet) 1 mM, 30°C, 15 min

Row | Protein | Km ([1]; co-substrate SAM, saturating) | Km [1, 3] | Km [2]
1 | TaOMT2 (Triticum aestivum; W259A) (protein) MGSIAAGADEDACMYALQLVSSSILPMTLKNAIELGLLETLMAAGGKFLTPAEVAAKLPSAANPEAPDMVDRMLRLLASYNVVSCRTEDGKDGRLSRRYGAAPVCKYLTPNEDGVSMSALALMNQDKVLMESWYYLKDAVLDGGIPFNKAYGMSAFEYHGTDPRFNRVFNEGMKNHSIIITKKLLESYKGFEGLGTLVDVGGGVGATVAAITAHYPTIKGINFDLPHVISEAPPFPGVTHVGGDMFQKVPSGDAILMKAILHDWSDEHCATLLKNCYDALPAHGKVVLVECILPVNPEATPKAQGVFHVDMIMLAHNPGGRERYEREFEALAKGAGFAAMKTTYIYANAWAIEFTK | 131.0 µM |  | 
2 | TaOMT2 (Triticum aestivum; V309I) (protein, full length, 356 residues, vector pET200/D-TOPO, expressed in E. coli BL21 (DE3), Ni-NTA purified, tag removal not mentioned; dimer in solution (monomers also active)) MGSIAAGADEDACMYALQLVSSSILPMTLKNAIELGLLETLMAAGGKFLTPAEVAAKLPSAANPEAPDMVDRMLRLLASYNVVSCRTEDGKDGRLSRRYGAAPVCKYLTPNEDGVSMSALALMNQDKVLMESWYYLKDAVLDGGIPFNKAYGMSAFEYHGTDPRFNRVFNEGMKNHSIIITKKLLESYKGFEGLGTLVDVGGGVGATVAAITAHYPTIKGINFDLPHVISEAPPFPGVTHVGGDMFQKVPSGDAILMKWILHDWSDEHCATLLKNCYDALPAHGKVVLVECILPVNPEATPKAQGVFHIDMIMLAHNPGGRERYEREFEALAKGAGFAAMKTTYIYANAWAIEFTK |  | 101.08 ± 9.68 µM | 18.24 ± 1.72 µM
3 | TaOMT2 (Triticum aestivum; G305S) (protein) MGSIAAGADEDACMYALQLVSSSILPMTLKNAIELGLLETLMAAGGKFLTPAEVAAKLPSAANPEAPDMVDRMLRLLASYNVVSCRTEDGKDGRLSRRYGAAPVCKYLTPNEDGVSMSALALMNQDKVLMESWYYLKDAVLDGGIPFNKAYGMSAFEYHGTDPRFNRVFNEGMKNHSIIITKKLLESYKGFEGLGTLVDVGGGVGATVAAITAHYPTIKGINFDLPHVISEAPPFPGVTHVGGDMFQKVPSGDAILMKWILHDWSDEHCATLLKNCYDALPAHGKVVLVECILPVNPEATPKAQSVFHVDMIMLAHNPGGRERYEREFEALAKGAGFAAMKTTYIYANAWAIEFTK | 118.41 µM |  | 
4 | TaOMT2 (Triticum aestivum) (protein, full length, 356 residues, vector pET200/D-TOPO, expressed in E. coli BL21 (DE3), Ni-NTA purified, tag removal not mentioned; dimer in solution (monomers also active)) MGSIAAGADEDACMYALQLVSSSILPMTLKNAIELGLLETLMAAGGKFLTPAEVAAKLPSAANPEAPDMVDRMLRLLASYNVVSCRTEDGKDGRLSRRYGAAPVCKYLTPNEDGVSMSALALMNQDKVLMESWYYLKDAVLDGGIPFNKAYGMSAFEYHGTDPRFNRVFNEGMKNHSIIITKKLLESYKGFEGLGTLVDVGGGVGATVAAITAHYPTIKGINFDLPHVISEAPPFPGVTHVGGDMFQKVPSGDAILMKWILHDWSDEHCATLLKNCYDALPAHGKVVLVECILPVNPEATPKAQGVFHVDMIMLAHNPGGRERYEREFEALAKGAGFAAMKTTYIYANAWAIEFTK |  | 59.51 ± 0.79 µM | 270.98 ± 11.51 µM
5 | TaOMT2 (Triticum aestivum; D263N) (protein) MGSIAAGADEDACMYALQLVSSSILPMTLKNAIELGLLETLMAAGGKFLTPAEVAAKLPSAANPEAPDMVDRMLRLLASYNVVSCRTEDGKDGRLSRRYGAAPVCKYLTPNEDGVSMSALALMNQDKVLMESWYYLKDAVLDGGIPFNKAYGMSAFEYHGTDPRFNRVFNEGMKNHSIIITKKLLESYKGFEGLGTLVDVGGGVGATVAAITAHYPTIKGINFDLPHVISEAPPFPGVTHVGGDMFQKVPSGDAILMKWILHNWSDEHCATLLKNCYDALPAHGKVVLVECILPVNPEATPKAQGVFHVDMIMLAHNPGGRERYEREFEALAKGAGFAAMKTTYIYANAWAIEFTK | 128.2 µM |  | 
6 | TaOMT2 (Triticum aestivum; W259Y) (protein) MGSIAAGADEDACMYALQLVSSSILPMTLKNAIELGLLETLMAAGGKFLTPAEVAAKLPSAANPEAPDMVDRMLRLLASYNVVSCRTEDGKDGRLSRRYGAAPVCKYLTPNEDGVSMSALALMNQDKVLMESWYYLKDAVLDGGIPFNKAYGMSAFEYHGTDPRFNRVFNEGMKNHSIIITKKLLESYKGFEGLGTLVDVGGGVGATVAAITAHYPTIKGINFDLPHVISEAPPFPGVTHVGGDMFQKVPSGDAILMKYILHDWSDEHCATLLKNCYDALPAHGKVVLVECILPVNPEATPKAQGVFHVDMIMLAHNPGGRERYEREFEALAKGAGFAAMKTTYIYANAWAIEFTK | 170.1 µM |  | 
7 | TaOMT2 (Triticum aestivum; E322I) (protein) MGSIAAGADEDACMYALQLVSSSILPMTLKNAIELGLLETLMAAGGKFLTPAEVAAKLPSAANPEAPDMVDRMLRLLASYNVVSCRTEDGKDGRLSRRYGAAPVCKYLTPNEDGVSMSALALMNQDKVLMESWYYLKDAVLDGGIPFNKAYGMSAFEYHGTDPRFNRVFNEGMKNHSIIITKKLLESYKGFEGLGTLVDVGGGVGATVAAITAHYPTIKGINFDLPHVISEAPPFPGVTHVGGDMFQKVPSGDAILMKWILHDWSDEHCATLLKNCYDALPAHGKVVLVECILPVNPEATPKAQGVFHVDMIMLAHNPGGRIRYEREFEALAKGAGFAAMKTTYIYANAWAIEFTK | 193.17 µM |  | 
